These are literature values, as cited in PMC11720126.

Like-named read-outs stand apart in the source and are kept apart here.

Series [1] addresses Calmodulin (Homo sapiens) (UniProt P0DP23).
Series [2] shares this target. The source holds these as a separate data set.
For series [3] the target is unchanged. This is another data set of the same source.
Series [4] has the same target. This is another data set of the same source.

STIM2 PBD (from UniProt Q9P246): the dissociation constant (Kd) was 0.9 µM in series [1] and 150 µM in series [2].
As to STIM1 PBD (from UniProt Q13586), the values for the Kd in series [3] and in series [4] were 55 µM and 0.8 µM, respectively.

As a reminder, the Kd is the equilibrium constant for the complex coming apart.
